Tests used:
GST-His6-2×HBD = GST-His6-2×HBD (UniProt O60930); test: BLI; settings: EMSA: 30 nM probe, 20 mM Hepes pH 7.0, 100 mM NaCl, 5% glycerol, 10 mM DTT, 0.5 mM EDTA, 5 ug/ml salmon sperm DNA, 25°C 30 min; BLI: 20 mM Hepes-NaOH pH 7.5 …
GST-His6-HBD = molecular target: T1, GST-His6-HBD (UniProt O60930); test: BLI; settings: EMSA: 30 nM probe, 20 mM Hepes pH 7.0, 100 mM NaCl, 5% glycerol, 10 mM DTT, 0.5 mM EDTA, 5 ug/ml salmon sperm DNA, 25°C 30 min; BLI: 20 mM Hepes-NaOH pH 7.5 …
T1 sequence (O60930 whole entry, looked up): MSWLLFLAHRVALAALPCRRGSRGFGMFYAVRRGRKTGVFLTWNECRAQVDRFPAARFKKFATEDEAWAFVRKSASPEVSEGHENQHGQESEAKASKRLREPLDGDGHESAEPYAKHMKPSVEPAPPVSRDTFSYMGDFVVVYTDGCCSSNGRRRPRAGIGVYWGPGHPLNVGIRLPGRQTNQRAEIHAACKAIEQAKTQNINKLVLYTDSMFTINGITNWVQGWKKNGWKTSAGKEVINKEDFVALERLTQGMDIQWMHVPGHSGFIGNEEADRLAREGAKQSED

Q: For “AGCGTGCCGTGCAACAACATTACAC / GUGUAAUGUUGUUGCACGGCACGCU [biotin DNA-RNA hybrid 25-mer (BLI)]”, which Kd (GST-His6-2×HBD) is on record?
A: 10.4 nM

Q: And the Kd (GST-His6-HBD)?
A: 16.5 nM

Reference: paper PMC7888926
